US20220332795A1 (ARO BIOTHERAPEUTICS, published 2022)
Changes are numbered by the printed parent chain.

B1: SEQ ID NO 78 (designed binder, not shown: small tags and cut ends)
chain: MLPAPKNLVVSRVTEDSARLSWTAPDAAFDSFGIGYYEHKRFGEAIQLSVPGSERSYDLTGLKPGTEYEVDIEGVKGGVLSWPLFAEFTT
notes: FN3 domain, hit of the apical domain panning
B2: SEQ ID NO 75 (designed binder, not shown: small tags and cut ends)
chain: MLPAPKNLVVSRVTEDSARLSWTAPDAAFDSFTISYGEEALIGEAIYLRVPGSERSYDLTGLKPGTEYYVHIEGVKGGSWSQPLAAAFTT
notes: as for B1
B3: SEQ ID NO 2 (designed binder, not shown: small tags and cut ends)
chain: MLPAPKNLVVSEVTEDSARLSWQGVARAFDSFMINYSELFWMGEAIVLTVPGSERSYDLTGLKPGTEYVVRIKGVKGGKGSWPLHAHFTT
notes: as for B1
B4: SEQ ID NO 71 (designed binder, not shown: small tags and cut ends)
chain: MLPAPKNLVVSRVTEDSARLSWTAPDAAFDSFPISYLELSLYGEAIVLTVPGSERSYDLTGLKPGTEYPVGIAGVKGGVVSRPLSAIFTT
notes: as for B1
B5: SEQ ID NO 25 (designed binder, not shown: small tags and cut ends)
chain: B4 chain with S35W, L39K, L41Y, Y42Q, P69V, G71P, A73I, V79R, V80D, R82C
notes: as for B1
B6: SEQ ID NO 101 (designed binder, not shown: small tags and cut ends)
chain: B4 chain with P33H, S35L, L37E, S40F, Y42V, P69K, G71P, A73S, V79P
notes: as for B1
B7: SEQ ID NO 31 (designed binder, not shown: small tags and cut ends)
chain: MLPAPKNLVVSRVTEDSARLSWTAPDAAFDSFTIEYSEHPIDGEAIPLFVPGSERSYDLTGLKPGTEYYVRIHGVKGGWFSHPLWAFFTT
notes: as for B1
B8: SEQ ID NO 27 (designed binder, not shown: small tags and cut ends)
chain: MLPAPKNLVVSRVTEDSARLSWTAPDAAFDSFRISYAETVRQGEAIVLTVPGSERSYDLTVETGYRNWVMILGVKGGPGSLPLSAIFTT
notes: as for B1
B9: SEQ ID NO 24 (designed binder, not shown: small tags and cut ends)
chain: MLPAPKNLVVSRVTEDSARLSWTAPDAAFDSFMIRYQEGTRWGEAIVLTVPGSERSYDLTGLKPGTEYIVMIAGVKGGQISLPLSAIFTT
notes: as for B1
B10: SEQ ID NO 89 (designed binder, not shown: small tags and cut ends)
chain: MLPAPENLVVSRVTEDSARLSWTAPDAAFDSFWIEYYEGVIQGEAIVLTVPGSERSYDLTGLKPGTEYFVAIWGVKGGKWSVPLSAIFTT
notes: as for B1
B11: SEQ ID NO 20 (designed binder, not shown: small tags and cut ends)
chain: MLPAPKNLVVARVTEDSARLSWTAPDAAIDSFPIDYSEYWWGGEAIVLTVPGSERSYDLTGLKPGTEYPVLITGVKGGYRSGPLSAIFTT
notes: as for B1
B12: SEQ ID NO 90 (designed binder, not shown: small tags and cut ends)
chain: MLPAPKNLVVSRVTEDSARLSWQGVARAFDSFLITYREQIFAGEVIVLTVPGSERSYDLTGLKPGTEYPVWIQGVKGGSPSAEFTT
notes: as for B1
B13: SEQ ID NO 93 (designed binder, not shown: small tags and cut ends)
chain: MLPAPKNLVVSRVTEDSARLSWTAPDAAFDSFAIEYYEPVPAGEAIYLDVPGSERSYDLTGLKPGTEYDVTIYGVKGGYYSHPLFASFTT
notes: as for B1
B14: SEQ ID NO 80 (designed binder, not shown: small tags and cut ends)
chain: MLPAPKNLVVSRVTEDSARLSWTAPDAAFDSFWIDYEEEGVIGEAIYLHVPGSERSYDLTGLKPGTEYVVKIHGVKGGHPSHPLVAVFTT
notes: as for B1
B15: SEQ ID NO 10 (designed binder, not shown: small tags and cut ends)
chain: MLPAPKNLVVSRVTEDSARLSWTAPDAAFDSFKIAYIETATRGEAIVLTVPGSERSYDLTGLKPGTEYVVPIPGVKGGNTSSPLSAIFTT
notes: as for B1
B16: SEQ ID NO 3 (designed binder, not shown: small tags and cut ends)
chain: B15 chain with K33N, A35E, I37A, A40R, T41W, R42Y, P73D, N79I, T80A, S82K
notes: as for B1
B17: SEQ ID NO 79 (designed binder, not shown: small tags and cut ends)
chain: MLPAPKNLVVSRVTEDSARLSWTAPDAAFDSFVIEYTERFWSGEAIVLTVPGSERSYDLTGLKPGTEYSVPIDGVKGGQCSTPLSAIFTT
notes: as for B1
B18: SEQ ID NO 63 (designed binder, not shown: small tags and cut ends)
chain: MLPAPKNLVVSRVTEDSARLSWTAPDAAFDSFCISYYERMGRGEAIVLTVPGSERSYDLTGLKPGTEYMVYIFGVKGGLNSLPLSAIFTT
notes: as for B1
B19: SEQ ID NO 69 (designed binder, not shown: small tags and cut ends)
chain: MLPAPKNLVVSRVTEDSARLSWTAPDAAFDSFHIAYEETATSGEAIYLRVPGSERSYDLTGLKPGTEYGVEIEGVKGGARSRPLYADFTT
notes: as for B1
B20: SEQ ID NO 22 (designed binder, not shown: small tags and cut ends)
chain: MLPAPKNLVVSRVTEDSARLSWTAPDAAFDSFWYLELQFAGEAIVLTVPGSERSYDLTGLKPGTEYNVPITGVKGGIISFPLSAIFTT
notes: as for B1
B21: SEQ ID NO 35 (designed binder, not shown: small tags and cut ends)
chain: MLPAPKNLVVSRVTEDSARLSWTAPDAAFDSFPISYIESIADGEAIVLTVPGSERSYDLTGLKPGTEYWVAIVGVKGGPFSWSLSAIVTT
notes: as for B1
B22: SEQ ID NO 74 (designed binder, not shown: small tags and cut ends)
chain: MLPAPKNLVVSRVTEDSARLSWTAPDAAFDSFSITYLEWWNLGEAIVLTVPGSERSYDLTGLKPGTEYMVTIPGVKGGMSSYPLSAIFTT
notes: as for B1
B23: SEQ ID NO 100 (designed binder, not shown: small tags and cut ends)
chain: B22 chain with S33Y, T35W, L37E, W39V, W40M, N41Y, M69N, T71P, M79H, Y82P
notes: as for B1
B24: SEQ ID NO 98 (designed binder, not shown: small tags and cut ends)
chain: MLPAPKNLVVSRVTEDSARLSWTAPDAAFDSFGIAYDEWPEFGEAIVLTVPGSERSYDLTGLKPDTEYIVEIYGVKGGWFSWPLSAIFTT
notes: as for B1
B25: SEQ ID NO 14 (designed binder, not shown: small tags and cut ends)
chain: MLPAPKNLVVSRVTEDSARLSWTAPDAAFDSFPIYYVENVVWGEAIVLTVPGSERSYDLTGLKPGTEYWEVIIGVKGGQCSRPLSAIFTT
notes: as for B1
B26: SEQ ID NO 21 (designed binder, not shown: small tags and cut ends)
chain: MLPAPKNLVVSRVTEDSARLSWTAPDAAFDSFSIRYNEFIVAGEAIVLTVPGSERSYDLTGLKPGTEYDVPIAGVKGGGASWPLSAIVTT
notes: as for B1
B27: SEQ ID NO 67 (designed binder, not shown: small tags and cut ends)
chain: MLPAPKNLVVSRVTEDSARLSWTAPDAAFDSFTILYAEQAQFGEAIVLTVPGSERSYDLTGLKPGTEYPITGVKGGTRSGPLSAISTT
notes: as for B1
B28: SEQ ID NO 66 (designed binder, not shown: small tags and cut ends)
chain: MLPAPKNLVVSRVTEDSARLSWTAPDAAFDSFTIDYDEPRSPGEAIVLTVPGSERSYDLTGLKPGTEYRVFIWGIKGGDTSFPLSAIFTT
notes: as for B1
B29: SEQ ID NO 96 (designed binder, not shown: small tags and cut ends)
chain: MSLPAPKNLVVSRVTEDSARLSWTAPDAAFDSFPIAYLEVFYEGEAIVLTVPGSERSYDLTGLKPGTEYQVPIEGVKGGAMSLPLSAIFTT
notes: as for B1
B30: SEQ ID NO 61 (designed binder, not shown: small tags and cut ends)
chain: MLPAPKNLVVSRVTEDSARLSWTAPDAAFDSFQIVYSELWIKGEAIVLTVPGSERSYDLTGLKPGTEYQVPIPGVKGGRNSFPLSAIFTT
notes: as for B1
B31: SEQ ID NO 87 (designed binder, not shown: small tags and cut ends)
chain: B17 chain with V33A, R39F, F40L, W41Y, S69G, D73N, Q79F, C80V, T82P, F88V
notes: as for B1
B32: SEQ ID NO 16 (designed binder, not shown: small tags and cut ends)
chain: MLPAPKNLVVSRVTEDSARLSWTAPDAAFDSFGIAYREFRPSGEAIVLTVPGSERSYDLTVETGYRNEVVICGVKGGPWSGPLSAIFTT
notes: as for B1
B33: SEQ ID NO 97 (designed binder, not shown: small tags and cut ends)
chain: MLPAPKNLVVSRVTEDSARLSWTAPDAAFDSFHIWYEEETTIGEAIYLHVPGSERSYDLTGLKPGTEYEVHITGVKGGPYSRPLFANFTT
notes: as for B1
B34: SEQ ID NO 91 (designed binder, not shown: small tags and cut ends)
chain: MLPAPKNLVVSRVTEDSARLSWTAPDAAFDSFQIHYWETQGFGEAIVLTVPGSERSYDLTGLKPGTEYPVLIPGVKGGPSSLPLSAIFTT
notes: as for B1
B35: SEQ ID NO 23 (designed binder, not shown: small tags and cut ends)
chain: MLPAPKNLVVSRVTEDSARLSWTAPDAAFDSFAIWYHEWYGDGEAIVLTVPGSERSYDLTGPKPGTEYRVRISGVKGGFESGPLSAIFTT
notes: as for B1

Molecular target: T1, recombinant biotinylated CD71 extracellular domain (Sino Biologics) with an N-terminal 6His tag (human, UniProt P02786 89-760, biotinylated (site not stated))
T1 construct: extracellular domain; also called hCD71; huCD71 ECD
T1 sequence (P02786 other isoform, or with tags, fused parts or gaps): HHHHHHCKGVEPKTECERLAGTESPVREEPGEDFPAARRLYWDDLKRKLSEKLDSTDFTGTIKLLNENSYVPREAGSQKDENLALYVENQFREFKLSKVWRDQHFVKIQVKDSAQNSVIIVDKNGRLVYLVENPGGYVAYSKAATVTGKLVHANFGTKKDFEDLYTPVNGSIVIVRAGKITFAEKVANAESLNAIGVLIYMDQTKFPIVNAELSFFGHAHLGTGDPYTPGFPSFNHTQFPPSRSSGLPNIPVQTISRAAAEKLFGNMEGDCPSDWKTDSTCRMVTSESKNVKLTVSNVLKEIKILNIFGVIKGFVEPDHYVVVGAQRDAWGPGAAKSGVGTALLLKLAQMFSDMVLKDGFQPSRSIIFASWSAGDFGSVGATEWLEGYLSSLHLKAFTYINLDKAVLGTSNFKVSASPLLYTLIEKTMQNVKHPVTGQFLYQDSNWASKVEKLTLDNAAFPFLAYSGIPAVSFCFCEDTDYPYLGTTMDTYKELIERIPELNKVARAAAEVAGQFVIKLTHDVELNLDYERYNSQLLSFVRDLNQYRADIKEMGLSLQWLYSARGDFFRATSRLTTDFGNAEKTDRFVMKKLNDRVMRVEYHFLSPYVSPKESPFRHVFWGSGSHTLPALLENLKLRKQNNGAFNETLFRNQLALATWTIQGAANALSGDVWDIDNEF
Assay: primary solution ELISA screen

Binder | RLU
B1 | 271000 RLU
B2 | 530000 RLU
B3 | 383000 RLU
B4 | 2.64e+06 RLU
B5 | 222000 RLU
B6 | 336000 RLU
B7 | 642000 RLU
B8 | 297000 RLU
B9 | 2.45e+06 RLU
B10 | 919000 RLU
B11 | 791000 RLU
B12 | 564000 RLU
B13 | 430000 RLU
B14 | 844000 RLU
B15 | 788000 RLU
B16 | 687000 RLU
B17 | 273000 RLU
B18 | 4.71e+06 RLU

Binder | RLU
B19 | 3.17e+06 RLU
B20 | 3.15e+06 RLU
B21 | 1.99e+06 RLU
B22 | 824000 RLU
B23 | 408000 RLU
B24 | 1.31e+06 RLU
B25 | 1.4e+06 RLU
B26 | 579000 RLU
B27 | 1.85e+06 RLU
B28 | 232000 RLU
B29 | 726000 RLU
B30 | 252000 RLU
B31 | 282000 RLU
B32 | 657000 RLU
B33 | 957000 RLU
B34 | 491000 RLU
B35 | 1.39e+06 RLU

Molecular target: T1, recombinant biotinylated CD71 …
Assay: primary solution ELISA screen, signal on hCD71 over HSA

Binder | hCD71:HSA
B1 | 29
B2 | 143
B3 | 14
B4 | 96
B5 | 58
B6 | 73
B7 | 138
B8 | 127
B9 | 374
B10 | 141
B11 | 43
B12 | 46
B13 | 91
B14 | 25
B15 | 27
B16 | 69
B17 | 46
B18 | 826

Binder | hCD71:HSA
B19 | 1170
B20 | 105
B21 | 106
B22 | 56
B23 | 79
B24 | 117
B25 | 1280
B26 | 85
B27 | 131
B28 | 29
B29 | 48
B30 | 19
B31 | 77
B32 | 95
B33 | 147
B34 | 74
B35 | 110
